Test results as given in the supplement of paper PMC12455559.

Columns and labels:
[1] = melting temperature (DSF); higher = more thermostable
Outline: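 Candidate enzymes were expressed in E. coli C41(DE3), purified on nickel beads and released by SUMO protease cleavage. For differential scanning fluorimetry, 45 μL enzyme (0 to 0.3 mg/mL) was mixed with 5 μL 5X Sypro Orange in sealed PCR plates on a Bio-Rad CFX96 instrument. Fluorescence was read from 25 °C in steps of 0.3 °C per cycle (ramp 0.3 °C/s) for 250 cycles. The read-out is melting temperature.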

[2] = PET hydrolysis, aromatic products released after 48 h (umol product/mg enzyme); higher = more PET depolymerization activity; conditions: substrate: cryPow
Outline: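 Hydrolysis activity toward PET is reported as supernatant aromatic product per mg enzyme. To measure it, 5 μg (50 μL) of tagless enzyme was incubated with 3.5 mg amorphous PET film or crystalline PET powder in 450 μL buffer for 48 h at 40 or 60 °C in sealed, unshaken plates. The product was quantified by absorbance at 260 and 280 nm relative to buffer blanks.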

[3] = purified protein yield per well (BCA); higher = higher soluble expression
Outline: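 Purified protein yield per well is reported, as measured by the Pierce Rapid Gold BCA kit. The enzymes came from E. coli C41(DE3) autoinduction cultures of 2 mL with 100 µg/mL kanamycin, held at 37 °C for 2 h and 18 °C for 40 h, then lysed and purified on Ni-charged magnetic beads with SUMO protease release. The detection threshold is 25 ug (0.1 mg/mL), and lower values are under it.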

Sequence | melting temperature [1] [C] | PET hydrolysis ([2]; 40 °C, pH 4.5) | PET hydrolysis ([2]; 40 °C, pH 5.5) | PET hydrolysis ([2]; 40 °C, pH 6.5) | PET hydrolysis ([2]; 40 °C, pH 7.5) | purified protein yield per well [3] [µg] | PET hydrolysis ([2]; 40 °C, pH 8.5) | PET hydrolysis ([2]; 60 °C, pH 5.5) | PET hydrolysis ([2]; 60 °C, pH 6.5) | PET hydrolysis ([2]; 60 °C, pH 7.5) | PET hydrolysis ([2]; 60 °C, pH 8.5) | PET hydrolysis ([2]; 60 °C, pH 4.5)
MAGAAGWPSTASAADNPYQRGPAPTAASIAADRGPFATAQVTVPRGNGFGGGVIYYPTDTSQGTFGAIAIAPGFSTAWSYYAWQGPRLASFGFVVIGIETNTLNDYADARAAQLLAALDYLVNSSSVRDRVDRNRLAVGGHSMGGGGAILAANQRPSLLTAVGQAPYVPDGSLSGIKSPTIIFAGQTDGTVTPQYAQNAYNTIPGSVERAYVEIANEGHGFPAGGGGGNSGAFARTMMIWLKLFVDKDTRYAPFLCPALTNANGISKYMASCPLDPPGGGPTASPTSTPTSTPTSTPTGSPPTGSTSSLRGVASGRCLDVNGASQSNGATVLIWDCNGQSNQKWTSTSASELRVYGGKCLDVNGGGTADGTAVIIWDCNGQNNQKWRFNSDSSITAVGANKCLDVSANGTANGTRVQIWSCTGGGNQKWTRV [ESM024] | 62.8 | < 3 | < 3 | 3 | 4 | 86.8 |  |  |  |  |  | 
ADNPYQRGPDPTPQSISATTGPFATASVTVPRQGNFGGGVIYYPTDTSQGTFGAVAISPGLNGTWPGIAWLGPRLSSQGFVVFGIDTLGLNDSTASRGSQLLAALDYLTQTSSVRTRVDASRLAVAGHSMGGGGAFEAVLRRPTLKASIPNAPFFPGSAANVRVPTLITAMQNDSLVGQNRNAYNGIPAGVEKAYIELAGAGHNQIGQPTTAIARNWIPWLKIFVDNDARYHQFFCPTTNMSGLSQYLNTCPLTSATPPTSSPSAGPTTPGPTGPPPGGACAATYQTVNTWSGGYQGEMTVRAGNSAINGWTVRWTMGGGQISQVWNGTLVTGSGAAAVRNAPYNGALAAGATTTFGFISSGTPSATSLTCATP [ESM064] | 63.1 | < 3 | 11 | 10 | 74 | 164 |  |  |  |  |  | 
ATTSYQRGPNPTEQSVRAANGPFAYSQFAIPDAEATGFGEGTIYYPNNTSVGTFGGVVIAPGFNADQNSTVWLGKRLASHGFVAVTITTHELNDQPYERGKQILAALDYLTGQSPAFVRSRLDPARLAAVGHSMGGGGTLFAAAQRPSLKAIVPLAPWALAKNWSNVQVPTMILSGAQDASAPPAEHAEKFYASLTSAPEKAYAKLDVNHVRFAWEHPLIGKLVVSWLKRFVDEDTRYTQFLCPTATGAVLLEYRATCPLG [DP026] | 66.1 |  | 3 | < 3 | < 3 | 164 | < 3 | < 3 | < 3 | < 3 | < 3 | 
ADNPYQRGPDPTRSSVAAVNGPFANTSVAVPTGYGFNGGRIYYPTDTSQGTFGAVAISPGYTALFSVELAWMGPWLASHGFVVIGIETNSRNDFDTARGTQLLAALDYLVQQSPVRDRIDPNRLAVSGHSMGGGGALSAALRRPALKAAVGIAPYSPSSNLANDRVPTMVFAGQADTVVTPSYATGLYNSLPTTTESAYLEVAGADHGFMVGRSNPVLIRTMLPFLKMFVDNDARYSQFLCPLADNSGVVSYRSTCPLLPPTSTTPPPIPSDTPPPIPTTPPQTTPPPSNPPGAASLIVGAQSNRCLDVPNASRANGTRVQLWDCNRGTNQSWTYTTNKQLRVYGDMCLDAAGSGNGAAVQIYGCHSQTNQQWNVNANGTISSVQSGRCLDVWSTANGAQVQLYDCHGQTNQRFTLTPLT [ESM101] | 58.6 | 7 | 19 | 8 | 4 | 149 |  | < 3 | < 3 | < 3 |  | < 3
AAGYERGPNPTSSALEATRGPFSVASTNVSSLSASGFGGGTIYYPTDTSQGTFGGVVIAPGYTASKSSMAWLAERLASHGFVVFNIDTITRSDQPDSRGRQILAAADHLAEESSSTVRRRLDASRIGVMGHSMGGGGTLAAADSRPSLKAAVPLTPWHLDKSWGNVRVPTMIIGAENDTIAAVGSHSEPFYNSLSAAPEKAYLELNGASHFAPNSDNDTIAKYGISWMKRFVDEDTRYDQFLCPAPGRSTTIEEYRSSCPHS [DP086] | 39.1 |  | < 3 | < 3 | < 3 | 90 | < 3 | < 3 | < 3 | < 3 | < 3 | 
